Target: β-tubulin (porcine, UniProt P02554 1-445)
Assay: mass photometry; label-free, in free solution; tubulin diluted in BRB80 buffer to 1 to 60 nM total monomer, no added GTP; 20 min equilibration after dilution (also measured immediately after dilution); Kd computed from counts of monomers and dimers in each single distribution; heterodimer to monomers
Details: both partners purified

Chain of β-tubulin (P02554 whole entry): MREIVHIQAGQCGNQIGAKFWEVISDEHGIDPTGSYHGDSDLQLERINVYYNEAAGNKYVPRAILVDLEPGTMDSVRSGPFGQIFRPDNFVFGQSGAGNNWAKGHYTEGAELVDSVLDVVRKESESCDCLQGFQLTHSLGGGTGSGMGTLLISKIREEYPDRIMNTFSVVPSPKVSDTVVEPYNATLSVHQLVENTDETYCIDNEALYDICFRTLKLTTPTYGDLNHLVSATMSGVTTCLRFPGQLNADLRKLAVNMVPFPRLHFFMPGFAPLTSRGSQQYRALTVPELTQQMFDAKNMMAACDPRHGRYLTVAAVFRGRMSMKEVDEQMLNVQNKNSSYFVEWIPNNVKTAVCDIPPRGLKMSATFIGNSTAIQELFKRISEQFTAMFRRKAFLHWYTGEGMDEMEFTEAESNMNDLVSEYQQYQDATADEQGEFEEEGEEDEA

B1: α-tubulin (natural protein)
chain: MRECISIHVGQAGVQIGNACWELYCLEHGIQPDGQMPSDKTIGGGDDSFNTFFSETGAGKHVPRAVFVDLEPTVIDEVRTGTYRQLFHPEQLITGKEDAANNYARGHYTIGKEIIDLVLDRIRKLADQCTGLQGFSVFHSFGGGTGSGFTSLLMERLSVDYGKKSKLEFSIYPAPQVSTAVVEPYNSILTTHTTLEHSDCAFMVDNEAIYDICRRNLDIERPTYTNLNRLIGQIVSSITASLRFDGALNVDLTEFQTNLVPYPRAHFPLATYAPVISAEKAYHEQLSVAEITNACFEPANQMVKCDPRHGKYMACCLLYRGDVVPKDVNAAIATIKTKRTIQFVDWCPTGFKVGINYEPPTVVPGGDLAKVQRAVCMLSNTTAIAEAWARLDHKFDLMYAKRAFVHWYVGEGMEEGEFSEAREDMAALEKDYEEVGVDSVEGEGEEEGEEY
modifications: Brain-purified isotype mixture, isotype not named; TUBA1A taken as representative by convention. Native brain PTMs are likely but not specified. GTP at the non-exchangeable site as purified; the …
dimer:monomer ratio at 60 nM total tubulin: ~2
